Data on five substances can be found in paper PMC9723635.

The subject of data set [1] is RBPMS-A WT. Kind of data set: UV crosslinking. Particulars: 4 uM protein, EMSA: 50 mM HEPES pH 7.2-7.9, 15 mM MgCl2, 25% glycerol, 5 mM DTT, 45 mM KCl, 5 ug tRNA, 20 fmol RNA, 25 min at 30 C, then 5 ug heparin 5 min at 30 C. In general terms: Mobility shift assays separate free from complexed probe on a gel.
Data set [2] concerns RBPMS-A WT. Put plainly: EMSA. Particulars: apparent Kd, Hill fit; tRNA and heparin present; EMSA: 50 mM HEPES pH 7.2-7.9, 15 mM MgCl2, 25% glycerol, 5 mM DTT, 45 mM KCl, 5 ug tRNA, 20 fmol RNA, 25 min at 30 C, then 5 ug heparin 5 min at 30 C; 4% ….
Data set [3] has as its target recombinant RBPMS-A T/A (double mutant T113A and T118A) (UniProt Q93062). Kind of data set: AUC; sedimentation velocity, interference data, 40 000 rpm, 20°C, overnight; protein at 0.5 mg/ml in 20 mM HEPES, 500 mM KCl, 1 mM TCEP, pH 7.9; c(s) distributions by SEDFIT; self-association into dimers and higher-order oligomers.
Data set [4] concerns the target recombinant wild-type RBPMS-A (RNA Binding Protein with Multiple Splicing, canonical isoform A) (UniProt Q93062). Described as above.
The target in data set [5] is truncated RBPMS-A T/E (amino acids 1-122, T113E and T118E), the sample used for NMR (UniProt Q93062). Kind of data set: SEC-MALS; 50 μl at ~2 mg/ml on Superdex 75 10/300 GL increase, 10 mM HEPES pH 6.8, 50 mM KCl, 0.5 ml/min; self-association (dimer). Background: SEC sorts molecules by how far they enter the pores of the column.

On to Tpm1 UV-crosslinking RNA, for which the binding signal (% (reference)) with RBPMS-A WT [1] (no nuclear extract) and in the data set on RBPMS-A WT [1] (with 20% HeLa nuclear extract) was 100 in each case.
“Tpm1 exon 3 upstream intron EMSA RNA (three tandem CAC motifs)”: the Kd in the data set with RBPMS-A WT [2] was 213 nM.
In the case of “recombinant RBPMS-A T/A (double mutant T113A and T118A) (from UniProt Q93062 2-196) (natural protein)”, the stoichiometry N in data set [3] came out at 2.
Take “recombinant wild-type RBPMS-A (RNA Binding Protein with Multiple Splicing, canonical isoform A) (from UniProt Q93062 2-196) (natural protein)”: in data set [4], the stoichiometry N worked out at 2.
“truncated RBPMS-A T/E (amino acids 1-122, T113E and T118E), the sample used for NMR (from UniProt Q93062 1-122) (domain or fragment)” showed a stoichiometry N in data set [5] of 2.

One may read the stoichiometry N as the number of molecules, sites or subunits per partner or assembly.
